Target: Jak2 (UniProt O60674)
Experiment: phosphorylation enrichment, bacterial display (enrichment ratio); higher = better substrate or ligand; peptides without Tyr show the background
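Also: 11-residue human phosphosite peptides and single-mutation variants displayed on the E. coli surface, counted by deep sequencing, each peptide's frequency after selection divided by its frequency in the unselected input library; frequency after pTyr selection over input frequency; kinase dosed for 20-30% of maximal phosphorylation in three min.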

Sequence of Jak2 (O60674 whole entry, looked up): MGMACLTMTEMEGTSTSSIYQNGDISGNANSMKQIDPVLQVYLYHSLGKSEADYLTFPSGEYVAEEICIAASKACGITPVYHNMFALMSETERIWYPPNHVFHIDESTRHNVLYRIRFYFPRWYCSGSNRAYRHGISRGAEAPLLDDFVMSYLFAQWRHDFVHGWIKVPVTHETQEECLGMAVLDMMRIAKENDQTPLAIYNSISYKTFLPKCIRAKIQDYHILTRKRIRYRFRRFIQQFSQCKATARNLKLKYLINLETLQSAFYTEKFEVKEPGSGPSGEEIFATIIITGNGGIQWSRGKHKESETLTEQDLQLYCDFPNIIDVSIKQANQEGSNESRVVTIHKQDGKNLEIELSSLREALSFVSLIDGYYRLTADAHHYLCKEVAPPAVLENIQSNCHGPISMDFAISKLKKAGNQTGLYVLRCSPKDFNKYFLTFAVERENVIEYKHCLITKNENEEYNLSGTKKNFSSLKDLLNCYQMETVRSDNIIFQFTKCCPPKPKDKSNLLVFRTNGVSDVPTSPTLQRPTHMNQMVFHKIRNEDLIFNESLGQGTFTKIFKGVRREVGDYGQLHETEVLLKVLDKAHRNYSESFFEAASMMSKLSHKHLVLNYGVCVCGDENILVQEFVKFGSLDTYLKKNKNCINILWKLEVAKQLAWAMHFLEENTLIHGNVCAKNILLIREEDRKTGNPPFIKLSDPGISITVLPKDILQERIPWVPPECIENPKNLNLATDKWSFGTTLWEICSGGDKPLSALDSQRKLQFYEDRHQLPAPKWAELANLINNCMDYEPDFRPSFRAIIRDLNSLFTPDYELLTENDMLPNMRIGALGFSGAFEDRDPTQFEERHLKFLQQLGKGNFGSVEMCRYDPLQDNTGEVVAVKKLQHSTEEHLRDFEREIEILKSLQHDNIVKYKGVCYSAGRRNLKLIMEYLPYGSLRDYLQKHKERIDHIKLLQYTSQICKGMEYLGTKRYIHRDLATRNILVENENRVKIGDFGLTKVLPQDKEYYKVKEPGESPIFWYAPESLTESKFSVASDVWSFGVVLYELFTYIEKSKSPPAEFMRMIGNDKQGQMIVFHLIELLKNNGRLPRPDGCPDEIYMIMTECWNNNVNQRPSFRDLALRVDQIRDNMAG

| Sequence | phosphorylation enrichment |
| --- | --- |
| VPVPGYTKLPE [SPRR3_Y146] | 0.848 |
| PPGRSYSPCDY [TNS1_Y793_Y796C] | 1.02 |
| HELFVYKSDEN [DOCK3_Y548_C550S_YF] | 2.04 |
| RFLRGYRQHAF [HLA-A_Y137_D140H_YF] | 0.933 |
| SDVCMYRKNIY [SYNE2_Y570] | 0.875 |
| HLTNQFMQRVA [PABPC4_Y382_Y382F] | 0.697 |
| GNHISYFQSDG [CACNA1C_Y1757_V1755I_YF] | 0.566 |
| ILGLEYSLRLP [HELZ2_Y1304_V1308L] | 1.33 |
| AQQPIYVRVEG [NLRP7_Y318] | 0.965 |
| PKGTGYIKTES [STAT1_Y701_L706S] | 1.22 |
| APIEDYGGGGG [B4GALT6_Y382] | 0.794 |
| RAEIVYKSPVV [MAPT_Y711_G706R] | 0.779 |
| RFGRKYKKVRF [F8_Y442_I438F] | 0.884 |
| FEELVYETVRV [FSHB_Y76_K72E] | 0.843 |
| SPQAHYRLSAF [ADAMTS9_Y100_S96P] | 0.584 |
| VHNLDYFKQTT [FGFR3_Y647_K650Q_YF] | 1.31 |
| KSIDEYLKLVG [RASAL2_Y381_E379D] | 0.761 |

| Sequence | phosphorylation enrichment |
| --- | --- |
| VLDSHYPEDEV [C1QBP_Y188_C186S] | 1.16 |
| DFLSSYSAVNE [OAT_Y85_Q90E] | 0.745 |
| MGCVNYGAFIN [GLB1_Y485_R482C_YF] | 1.14 |
| TYVVLYDAELT [ERCC4_Y581_R576T] | 1.05 |
| FVTSMYNEILI [TRPV1_Y310_M315I] | 1.01 |
| IMICAYLLHRG [PTEN_Y138_V133I] | 1.23 |
| GGSSPYSRRLA [CDK13_Y351_P356A] | 0.512 |
| KFEDVYVGICL [B3GALNT1_Y269] | 1.16 |
| NFADPYRQLQF [CTNND2_Y503_YF] | 0.667 |
| TQIGQYGNGLK [MORC2_Y100] | 0.358 |
| CTTIHYNFMFN [TP53_Y234_C238F_YF] | 1.34 |
| LGIDRYHAIVY [NPSR1_Y147_S143G] | 0.775 |
| HFVFFYSFLLK [PTEN_Y178_R173H_YF] | 3.35 |
| PESCLYKESWI [IQGAP2_Y630_L635I] | 1.54 |
| KVKEQYQDVPM [PKP2_Y659] | 0.632 |
| KGEDFYCVTRH [FHL1_Y149_C153R] | 1 |

System: c-Abl (mouse)
Experiment: as above

| Sequence | phosphorylation enrichment |
| --- | --- |
| VPVPGYTKLPE [SPRR3_Y146] | 0.988 |
| PPGRSYSPCDY [TNS1_Y793_Y796C] | 0.832 |
| HELFVYKSDEN [DOCK3_Y548_C550S_YF] | 1.11 |
| RFLRGYRQHAF [HLA-A_Y137_D140H_YF] | 1.02 |
| SDVCMYRKNIY [SYNE2_Y570] | 0.685 |
| HLTNQFMQRVA [PABPC4_Y382_Y382F] | 0.898 |
| GNHISYFQSDG [CACNA1C_Y1757_V1755I_YF] | 0.511 |
| ILGLEYSLRLP [HELZ2_Y1304_V1308L] | 0.937 |
| AQQPIYVRVEG [NLRP7_Y318] | 1.54 |
| PKGTGYIKTES [STAT1_Y701_L706S] | 0.868 |
| APIEDYGGGGG [B4GALT6_Y382] | 0.661 |
| RAEIVYKSPVV [MAPT_Y711_G706R] | 16.4 |
| RFGRKYKKVRF [F8_Y442_I438F] | 0.806 |
| FEELVYETVRV [FSHB_Y76_K72E] | 11.5 |
| SPQAHYRLSAF [ADAMTS9_Y100_S96P] | 0.597 |
| VHNLDYFKQTT [FGFR3_Y647_K650Q_YF] | 0.602 |
| KSIDEYLKLVG [RASAL2_Y381_E379D] | 0.449 |

| Sequence | phosphorylation enrichment |
| --- | --- |
| VLDSHYPEDEV [C1QBP_Y188_C186S] | 0.746 |
| DFLSSYSAVNE [OAT_Y85_Q90E] | 0.566 |
| MGCVNYGAFIN [GLB1_Y485_R482C_YF] | 1.01 |
| TYVVLYDAELT [ERCC4_Y581_R576T] | 0.67 |
| FVTSMYNEILI [TRPV1_Y310_M315I] | 0.686 |
| IMICAYLLHRG [PTEN_Y138_V133I] | 1.19 |
| GGSSPYSRRLA [CDK13_Y351_P356A] | 0.567 |
| KFEDVYVGICL [B3GALNT1_Y269] | 1.02 |
| NFADPYRQLQF [CTNND2_Y503_YF] | 0.654 |
| TQIGQYGNGLK [MORC2_Y100] | 0.339 |
| CTTIHYNFMFN [TP53_Y234_C238F_YF] | 1.04 |
| LGIDRYHAIVY [NPSR1_Y147_S143G] | 0.437 |
| HFVFFYSFLLK [PTEN_Y178_R173H_YF] | 2.85 |
| PESCLYKESWI [IQGAP2_Y630_L635I] | 1.48 |
| KVKEQYQDVPM [PKP2_Y659] | 0.603 |
| KGEDFYCVTRH [FHL1_Y149_C153R] | 0.835 |

Target: FGFR1 (UniProt P11362)
Sequence (P11362 whole entry, looked up): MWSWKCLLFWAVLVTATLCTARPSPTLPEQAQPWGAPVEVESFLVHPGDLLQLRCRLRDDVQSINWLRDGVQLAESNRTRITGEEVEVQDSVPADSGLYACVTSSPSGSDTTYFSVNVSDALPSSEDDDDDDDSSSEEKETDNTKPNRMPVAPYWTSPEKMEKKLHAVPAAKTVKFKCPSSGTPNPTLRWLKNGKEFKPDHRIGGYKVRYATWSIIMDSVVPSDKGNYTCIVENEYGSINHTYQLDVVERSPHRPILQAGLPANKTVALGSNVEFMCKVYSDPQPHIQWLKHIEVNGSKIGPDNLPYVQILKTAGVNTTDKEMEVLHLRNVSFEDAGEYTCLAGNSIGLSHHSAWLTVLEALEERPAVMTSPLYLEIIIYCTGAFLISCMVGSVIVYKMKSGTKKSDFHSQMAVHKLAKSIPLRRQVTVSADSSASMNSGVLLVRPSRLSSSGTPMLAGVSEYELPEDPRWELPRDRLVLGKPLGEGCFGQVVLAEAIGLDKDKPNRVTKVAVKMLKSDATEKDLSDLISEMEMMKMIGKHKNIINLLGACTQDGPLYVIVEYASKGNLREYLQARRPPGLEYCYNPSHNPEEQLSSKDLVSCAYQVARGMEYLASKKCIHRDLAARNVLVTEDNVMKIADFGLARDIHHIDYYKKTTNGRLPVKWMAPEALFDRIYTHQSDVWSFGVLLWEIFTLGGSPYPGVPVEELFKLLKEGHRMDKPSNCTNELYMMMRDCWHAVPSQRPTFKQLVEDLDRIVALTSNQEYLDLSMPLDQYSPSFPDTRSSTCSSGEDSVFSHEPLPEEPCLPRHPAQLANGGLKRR
Experiment: as above

| Sequence | phosphorylation enrichment |
| --- | --- |
| VPVPGYTKLPE [SPRR3_Y146] | 0.531 |
| PPGRSYSPCDY [TNS1_Y793_Y796C] | 0.73 |
| HELFVYKSDEN [DOCK3_Y548_C550S_YF] | 0.94 |
| RFLRGYRQHAF [HLA-A_Y137_D140H_YF] | 0.564 |
| SDVCMYRKNIY [SYNE2_Y570] | 0.502 |
| HLTNQFMQRVA [PABPC4_Y382_Y382F] | 0.576 |
| GNHISYFQSDG [CACNA1C_Y1757_V1755I_YF] | 0.483 |
| ILGLEYSLRLP [HELZ2_Y1304_V1308L] | 0.542 |
| AQQPIYVRVEG [NLRP7_Y318] | 1.12 |
| PKGTGYIKTES [STAT1_Y701_L706S] | 0.604 |
| APIEDYGGGGG [B4GALT6_Y382] | 0.523 |
| RAEIVYKSPVV [MAPT_Y711_G706R] | 0.783 |
| RFGRKYKKVRF [F8_Y442_I438F] | 0.653 |
| FEELVYETVRV [FSHB_Y76_K72E] | 2.21 |
| SPQAHYRLSAF [ADAMTS9_Y100_S96P] | 0.4 |
| VHNLDYFKQTT [FGFR3_Y647_K650Q_YF] | 0.743 |
| KSIDEYLKLVG [RASAL2_Y381_E379D] | 0.465 |

| Sequence | phosphorylation enrichment |
| --- | --- |
| VLDSHYPEDEV [C1QBP_Y188_C186S] | 0.52 |
| DFLSSYSAVNE [OAT_Y85_Q90E] | 0.55 |
| MGCVNYGAFIN [GLB1_Y485_R482C_YF] | 0.531 |
| TYVVLYDAELT [ERCC4_Y581_R576T] | 1.79 |
| FVTSMYNEILI [TRPV1_Y310_M315I] | 0.733 |
| IMICAYLLHRG [PTEN_Y138_V133I] | 0.534 |
| GGSSPYSRRLA [CDK13_Y351_P356A] | 0.356 |
| KFEDVYVGICL [B3GALNT1_Y269] | 1.23 |
| NFADPYRQLQF [CTNND2_Y503_YF] | 0.516 |
| TQIGQYGNGLK [MORC2_Y100] | 0.434 |
| CTTIHYNFMFN [TP53_Y234_C238F_YF] | 0.676 |
| LGIDRYHAIVY [NPSR1_Y147_S143G] | 2.82 |
| HFVFFYSFLLK [PTEN_Y178_R173H_YF] | 0.682 |
| PESCLYKESWI [IQGAP2_Y630_L635I] | 1.25 |
| KVKEQYQDVPM [PKP2_Y659] | 0.509 |
| KGEDFYCVTRH [FHL1_Y149_C153R] | 0.498 |

Target: EPHB1 (UniProt P54762)
Sequence (P54762 whole entry, looked up): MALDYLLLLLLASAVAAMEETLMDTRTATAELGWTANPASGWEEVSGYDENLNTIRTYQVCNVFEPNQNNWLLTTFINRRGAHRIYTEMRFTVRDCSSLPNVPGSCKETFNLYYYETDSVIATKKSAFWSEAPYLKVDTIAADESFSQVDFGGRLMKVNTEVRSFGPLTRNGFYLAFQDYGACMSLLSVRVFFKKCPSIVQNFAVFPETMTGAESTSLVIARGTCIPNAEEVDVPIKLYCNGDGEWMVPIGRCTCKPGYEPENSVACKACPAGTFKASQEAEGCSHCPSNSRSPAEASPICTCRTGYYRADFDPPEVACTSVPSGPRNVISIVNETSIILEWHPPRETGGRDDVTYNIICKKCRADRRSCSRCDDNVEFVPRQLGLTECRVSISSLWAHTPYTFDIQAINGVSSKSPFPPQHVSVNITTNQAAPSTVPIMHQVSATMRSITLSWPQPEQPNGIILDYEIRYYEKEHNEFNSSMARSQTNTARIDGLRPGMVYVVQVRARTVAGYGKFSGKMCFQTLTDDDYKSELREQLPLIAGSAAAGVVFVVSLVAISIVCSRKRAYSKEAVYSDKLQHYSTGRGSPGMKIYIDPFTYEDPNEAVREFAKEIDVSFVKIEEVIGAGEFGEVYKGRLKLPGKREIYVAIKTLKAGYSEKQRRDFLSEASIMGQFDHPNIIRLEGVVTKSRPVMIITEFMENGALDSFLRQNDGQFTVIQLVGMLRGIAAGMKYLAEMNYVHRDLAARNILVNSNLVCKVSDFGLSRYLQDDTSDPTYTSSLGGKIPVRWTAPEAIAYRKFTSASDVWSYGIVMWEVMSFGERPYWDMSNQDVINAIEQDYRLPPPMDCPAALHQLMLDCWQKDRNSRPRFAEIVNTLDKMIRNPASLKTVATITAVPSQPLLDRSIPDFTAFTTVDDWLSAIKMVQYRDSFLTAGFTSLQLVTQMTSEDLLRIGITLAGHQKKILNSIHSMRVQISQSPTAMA
Experiment: as above

| Sequence | phosphorylation enrichment |
| --- | --- |
| VPVPGYTKLPE [SPRR3_Y146] | 0.544 |
| PPGRSYSPCDY [TNS1_Y793_Y796C] | 0.512 |
| HELFVYKSDEN [DOCK3_Y548_C550S_YF] | 0.706 |
| RFLRGYRQHAF [HLA-A_Y137_D140H_YF] | 0.64 |
| SDVCMYRKNIY [SYNE2_Y570] | 0.618 |
| HLTNQFMQRVA [PABPC4_Y382_Y382F] | 0.621 |
| GNHISYFQSDG [CACNA1C_Y1757_V1755I_YF] | 0.552 |
| ILGLEYSLRLP [HELZ2_Y1304_V1308L] | 0.814 |
| AQQPIYVRVEG [NLRP7_Y318] | 5.88 |
| PKGTGYIKTES [STAT1_Y701_L706S] | 0.504 |
| APIEDYGGGGG [B4GALT6_Y382] | 0.649 |
| RAEIVYKSPVV [MAPT_Y711_G706R] | 0.663 |
| RFGRKYKKVRF [F8_Y442_I438F] | 0.572 |
| FEELVYETVRV [FSHB_Y76_K72E] | 4.38 |
| SPQAHYRLSAF [ADAMTS9_Y100_S96P] | 0.531 |
| VHNLDYFKQTT [FGFR3_Y647_K650Q_YF] | 0.56 |
| KSIDEYLKLVG [RASAL2_Y381_E379D] | 0.378 |

| Sequence | phosphorylation enrichment |
| --- | --- |
| VLDSHYPEDEV [C1QBP_Y188_C186S] | 0.611 |
| DFLSSYSAVNE [OAT_Y85_Q90E] | 0.504 |
| MGCVNYGAFIN [GLB1_Y485_R482C_YF] | 0.69 |
| TYVVLYDAELT [ERCC4_Y581_R576T] | 4.46 |
| FVTSMYNEILI [TRPV1_Y310_M315I] | 0.684 |
| IMICAYLLHRG [PTEN_Y138_V133I] | 0.617 |
| GGSSPYSRRLA [CDK13_Y351_P356A] | 0.363 |
| KFEDVYVGICL [B3GALNT1_Y269] | 0.857 |
| NFADPYRQLQF [CTNND2_Y503_YF] | 0.494 |
| TQIGQYGNGLK [MORC2_Y100] | 0.29 |
| CTTIHYNFMFN [TP53_Y234_C238F_YF] | 0.786 |
| LGIDRYHAIVY [NPSR1_Y147_S143G] | 0.443 |
| HFVFFYSFLLK [PTEN_Y178_R173H_YF] | 1.32 |
| PESCLYKESWI [IQGAP2_Y630_L635I] | 0.931 |
| KVKEQYQDVPM [PKP2_Y659] | 0.455 |
| KGEDFYCVTRH [FHL1_Y149_C153R] | 0.592 |
